Source: the Human Domainome abundance scans (Beltran et al. 2025)
± gives the uncertainty stated by the source.

B1: KAT8 regulatory NSL complex subunit 2, residues 28 to 91; numbered along this chain, Q9H9L4 (parent)
chain: CAFTHRPCSHPRLEGQEFCIKHILEDKNAPFKQCSYISTKNGKRCPNAAPKPEKKDGVSFCAEH
B2: Androgen receptor, residues 557 to 632; numbered along this chain, P10275 (parent)
chain: QKTCLICGDEASGCHYGALTCGSCKVFFKRAAEGKQKYLCASRNDCTIDKFRRKNCPSCRLRKCYEAGMTLGARKL

Variants of: B1
Test: abundance fitness (aPCA) (normalised: wild type 0, dead -1); higher = more abundant; growth selection in yeast, the domain comes from the species named
Conditions: Homo sapiens

Variant	abundance fitness
C1G	-0.604 ± 0.15
C1Y	-0.802 ± 0.062
C1N	-0.615 ± 0.19
C1M	-0.576 ± 0.16
C1E	-0.322 ± 0.09
A29W	-0.422 ± 0.068
A29E	-0.308 ± 0.083
A29S	-0.048 ± 0.072
C34A	-0.446 ± 0.096
C34P	-0.346 ± 0.12
C34Y	-0.604 ± 0.093
P11C	-0.296 ± 0.098
P11I	-0.298 ± 0.14
P11S	-0.162 ± 0.067
P11E	-0.004 ± 0.059
P11A	-0.032 ± 0.066
P11D	-0.068 ± 0.12
P11N	-0.282 ± 0.1
P46G	-0.022 ± 0.037
P46R	-0.042 ± 0.043
P46E	-0.031 ± 0.094
P50G	-0.211 ± 0.066
P50V	-0.204 ± 0.07
P50Q	-0.265 ± 0.2

Variant	abundance fitness
P50H	-0.135 ± 0.07
P50D	-0.302 ± 0.098
P50N	-0.126 ± 0.072
P50K	-0.176 ± 0.14
G42N	-0.117 ± 0.087
G42P	-0.1 ± 0.07
G42E	-0.005 ± 0.075
T39C	-0.205 ± 0.073
T39P	-0.207 ± 0.083
T39H	-0.091 ± 0.067
T39S	-0.112 ± 0.052
T39R	-0.105 ± 0.14
T39D	-0.101 ± 0.075
T39Y	-0.237 ± 0.16
R44P	-0.067 ± 0.058
R44H	-0.051 ± 0.12
I37G	-0.022 ± 0.04
I37R	-0.045 ± 0.045
I37W	-0.127 ± 0.052
C8F	-1.45 ± 0.15
C8G	-0.742 ± 0.056
C8H	-0.854 ± 0.085
C8I	-0.847 ± 0.09
C8N	-0.641 ± 0.1

Variant	abundance fitness
C8Y	-1.07 ± 0.073
Y36F	-0.015 ± 0.08
Y36I	-0.131 ± 0.092
Y36N	-0.157 ± 0.13
Y36H	-0.016 ± 0.089
Y36G	-0.085 ± 0.049
Y36K	-0.015 ± 0.069
Y36V	-0.129 ± 0.045
Y36A	-0.096 ± 0.056
Y36S	-0.06 ± 0.056
Y36W	-0.122 ± 0.069
K27L	-0.158 ± 0.041
K27N	-0.044 ± 0.097
K27G	-0.191 ± 0.068
G15D	-0.127 ± 0.14
G15P	-0.543 ± 0.04
G15W	-0.592 ± 0.091
S59G	-0.024 ± 0.092
S59E	-0.243 ± 0.14
S59C	-0.089 ± 0.14
S59R	-0.12 ± 0.09
S59W	0.01 ± 0.47
S59I	-0.006 ± 0.12
S59Y	-0.048 ± 0.081

Variant	abundance fitness
S59P	-0.141 ± 0.078
P30N	-0.178 ± 0.11
P30G	-0.074 ± 0.054
P30E	-0.251 ± 0.093
A48R	-0.166 ± 0.045
L24H	-0.227 ± 0.1
L24C	-0.129 ± 0.091
I23N	-0.463 ± 0.26
I23H	-0.246 ± 0.1
I23D	-0.35 ± 0.15
I23G	-0.295 ± 0.047
I23C	-0.154 ± 0.069
I23F	-0.404 ± 0.15
I23S	-0.156 ± 0.06
I23W	-0.286 ± 0.049
N28H	-0.028 ± 0.13
N28C	-0.142 ± 0.13
N28F	-0.083 ± 0.11
N28W	-0.312 ± 0.068
K21G	-0.121 ± 0.056
K21W	-0.173 ± 0.062
K21H	-0.005 ± 0.094
K21V	-0.117 ± 0.051
K21I	-0.251 ± 0.13

Variant	abundance fitness
K21A	-0.057 ± 0.058
K21C	-0.119 ± 0.1
E14F	-0.252 ± 0.19
E14H	-0.262 ± 0.16
E14D	-0.152 ± 0.13
E14R	-0.258 ± 0.052
K32F	-0.305 ± 0.11
K32N	-0.073 ± 0.091
K32T	-0.177 ± 0.069
K32R	-0.041 ± 0.063
K32P	-0.211 ± 0.073
C19T	-0.908 ± 0.07
C19P	-0.809 ± 0.11
S38F	-0.038 ± 0.075
S38I	-0.348 ± 0.15
S38V	-0.024 ± 0.051
S38W	-0.076 ± 0.05
S38L	-0.076 ± 0.05
F3R	-0.174 ± 0.044
F3T	-0.083 ± 0.068
F3Q	-0.28 ± 0.055
F3A	-0.318 ± 0.087
T4Y	-0.15 ± 0.14
T4D	-0.163 ± 0.1

Variant	abundance fitness
T4K	-0.378 ± 0.084
T4V	-0.468 ± 0.049
T4H	-0.128 ± 0.08
K40S	-0.299 ± 0.43
C45S	-0.378 ± 0.049
C45E	-0.193 ± 0.09
C45H	-0.581 ± 0.12
C45R	-0.635 ± 0.059
C45M	-0.438 ± 0.061
K51E	-0.064 ± 0.13
K51F	-0.21 ± 0.068
K51H	-0.166 ± 0.091
K51C	-0.072 ± 0.092
K51I	-0.041 ± 0.088
K51D	-0.05 ± 0.12
K51M	-0.099 ± 0.11
L13P	-0.86 ± 0.093
L13F	-0.324 ± 0.075
L13G	-0.423 ± 0.072
L13V	-0.127 ± 0.084
L13Q	-0.176 ± 0.13
L13C	-0.365 ± 0.11
L13N	-0.53 ± 0.15
Q33F	-0.217 ± 0.14

Variant	abundance fitness
D26K	-0.177 ± 0.09
D26W	-0.347 ± 0.067
D26Y	-0.223 ± 0.097
D26I	-0.072 ± 0.14
D26C	-0.097 ± 0.08
E17F	-0.19 ± 0.091
E17D	-0.098 ± 0.11
E17S	-0.105 ± 0.056
P52S	-0.082 ± 0.052
P52E	-0.066 ± 0.058
P52G	-0.068 ± 0.054
P52C	-0.188 ± 0.086
P52Y	-0.29 ± 0.13
E63H	0.136 ± 0.16
E63T	-0.054 ± 0.065
E63K	-0.09 ± 0.085
E63G	-0.034 ± 0.05
E63C	-0.111 ± 0.077
E63V	-0.175 ± 0.052
E63S	-0.093 ± 0.047
E63Q	-0.175 ± 0.091
F31W	-0.116 ± 0.088
F31M	-0.175 ± 0.057
F31Y	-0.195 ± 0.15

Variant	abundance fitness
H10R	-0.064 ± 0.045
H10E	-0.038 ± 0.077
H10Y	-0.041 ± 0.079
H10G	-0.01 ± 0.066
H10W	-0.127 ± 0.068
H10S	-0.042 ± 0.061
E25R	-0.099 ± 0.053
E25L	-0.098 ± 0.044
E25H	0.053 ± 0.17
E25C	-0.223 ± 0.14
H22I	-1.41 ± 0.15
H22F	-1.81 ± 0.27
H22G	-0.789 ± 0.053
H22N	-0.768 ± 0.12
H22D	-0.904 ± 0.098
H22V	-1.36 ± 0.059
A49I	-0.076 ± 0.091
A49D	-0.339 ± 0.13
A49N	-0.143 ± 0.17
A49P	-0.219 ± 0.078
A49F	-0.124 ± 0.071
A62H	-0.081 ± 0.088
A62I	-0.057 ± 0.076
A62D	-0.093 ± 0.07

Variant	abundance fitness
A62V	-0.059 ± 0.051
A62Q	-0.057 ± 0.061
A62W	-0.088 ± 0.031
A62M	-0.103 ± 0.051
A62T	-0.065 ± 0.059
A62S	-0.055 ± 0.044
N47S	-0.035 ± 0.064
N47I	-0.107 ± 0.078
N47T	-0.057 ± 0.083
N47R	-0.062 ± 0.065
N47C	-0.029 ± 0.089
N47V	-0.063 ± 0.047
S9L	-0.113 ± 0.047
S9T	-0.193 ± 0.062
S9V	-0.065 ± 0.075
S9K	-0.343 ± 0.068
S9H	-0.119 ± 0.085
S9G	-0.13 ± 0.051
A2T	-0.103 ± 0.056
A2H	-0.231 ± 0.1
A2V	-0.235 ± 0.051
A2W	-0.541 ± 0.059
A2E	-0.522 ± 0.1
A2G	-0.101 ± 0.055

Variant	abundance fitness
R6F	-0.016 ± 0.076
R6Y	-0.06 ± 0.09
R6V	-0.081 ± 0.058
R6Q	-0.072 ± 0.073
R6W	-0.118 ± 0.064
S35K	-0.046 ± 0.069
S35R	-0.105 ± 0.065
S35Q	-0.103 ± 0.098
S35V	-0.031 ± 0.053
K43L	-0.101 ± 0.052
K43N	0.027 ± 0.095
K43T	-0.028 ± 0.051
Q16V	-0.38 ± 0.068
Q16D	-0.408 ± 0.2
Q16S	-0.091 ± 0.054
Q16L	-0.054 ± 0.053
C61K	-0.436 ± 0.064
C61I	-0.499 ± 0.085
C61S	-0.432 ± 0.046
C61Q	-0.44 ± 0.077
C61R	-0.56 ± 0.046
H64E	-0.877 ± 0.32
H64Y	-0.781 ± 0.12
H64T	-0.33 ± 0.14

Variant	abundance fitness
H64W	-1.55 ± 0.46
H64M	-0.333 ± 0.22
H64Q	-0.463 ± 0.21
H64I	-1.02 ± 0.32
H64A	-0.582 ± 0.23
V58D	0.009 ± 0.093
V58T	-0.1 ± 0.1
V58W	-0.121 ± 0.11
V58E	-0.057 ± 0.092
H5V	-0.023 ± 0.059
H5R	-0.01 ± 0.058
H5E	0.017 ± 0.088
H5N	-0.212 ± 0.12
H5I	-0.084 ± 0.1
H5A	-0.068 ± 0.045
H5F	-0.096 ± 0.066
N41P	-0.13 ± 0.073
N41S	-0.052 ± 0.054
N41K	0.019 ± 0.11
N41L	-0.09 ± 0.06
N41Y	-0.365 ± 0.13
D56N	-0.073 ± 0.077
D56R	-0.063 ± 0.086
D56W	-0.305 ± 0.25

Variant	abundance fitness
D56H	-0.055 ± 0.086
F18Q	-0.642 ± 0.12
F18G	-0.563 ± 0.047
F18S	-0.59 ± 0.055
F18Y	-0.11 ± 0.084
F18W	-0.356 ± 0.073
F18K	-0.472 ± 0.093
P7A	-0.061 ± 0.076
P7Y	-0.149 ± 0.1
P7N	-0.204 ± 0.21
P7I	-0.096 ± 0.081
R12I	-0.234 ± 0.096
R12S	-0.106 ± 0.057
R12K	-0.325 ± 0.2
R12H	-0.308 ± 0.066
I20H	-0.179 ± 0.15
I20M	-0.031 ± 0.066
I20Y	-0.151 ± 0.078

Variants of: B2
Test: as above
Conditions: Homo sapiens

Variant	abundance fitness
L5G	-0.189 ± 0.041
L5I	-0.04 ± 0.052
L5H	-0.137 ± 0.069
L5C	-0.07 ± 0.078
L5D	-0.065 ± 0.061
L5A	-0.109 ± 0.052
L5F	-0.078 ± 0.052
L5E	-0.071 ± 0.062
Q1P	-0.439 ± 0.23
Q1T	0.106 ± 0.11
Q1D	0.071 ± 0.14
Q1Y	0.172 ± 0.18
Q1H	-0.504 ± 0.32
Q1A	-0.144 ± 0.16
Q1G	0.048 ± 0.066
Q1I	0.198 ± 0.15
Q1M	0.007 ± 0.1
Q1R	-0.228 ± 0.066
Q1L	-0.027 ± 0.086
Q1N	-0.053 ± 0.36
Q1F	0.16 ± 0.14
Q1C	-0.019 ± 0.14
Q1S	-0.058 ± 0.082
Q1W	-0.032 ± 0.084
Q1V	0.06 ± 0.12
Q1K	0.076 ± 0.079

Variant	abundance fitness
T3C	0.014 ± 0.13
T3E	-0.148 ± 0.096
T3I	0.009 ± 0.23
T3L	-0.035 ± 0.075
T3N	0.035 ± 0.2
T3R	-0.083 ± 0.064
T3S	-0.059 ± 0.079
T3G	-0.078 ± 0.06
T3W	-0.115 ± 0.087
T3H	-0.225 ± 0.2
T3Q	-0.04 ± 0.097
T3A	-0.081 ± 0.061
T3V	-0.245 ± 0.063
T3Y	-0.003 ± 0.15
T3K	-0.252 ± 0.1
T3P	-0.229 ± 0.12
T3D	-0.171 ± 0.084
C4L	-0.745 ± 0.35
C4Y	-0.884 ± 0.4
C4R	-0.114 ± 0.074
C4G	-0.61 ± 0.099
C4W	-0.964 ± 0.36
C4E	-0.563 ± 0.16
C4M	-0.679 ± 0.37
C4K	-0.87 ± 0.32
C4H	-0.851 ± 0.4
